From publication PMC10467038 (Science translational medicine, 2023)

B1: Nptxr/Nptx2 coexpressed on a stable doxycycline-inducible CHO cell line (complex)
chain 1: MKFLAVLLAAGMLAFLGAVICIIASVPLAASPARALPGGADNASVASGAAASPGPQRSLSALHGAGGSAGPPALPGAPAASAHPLPPGPLFSRFLCTPLAAACPSGAQQGDAAGAAPGEREELLLLQSTAEQLRQTALQQEARIRADQDTIRELTGKLGRCESGLPRGLQGAGPRRDTMADGPWDSPALILELEDAVRALRDRIDRLEQELPARVNLSAAPAPVSAVPTGLHSKMDQLEGQLLAQVLALEKERVALSHSSRRQRQEVEKELDVLQGRVAELEHGSSAYSPPDAFKISIPIRNNYMYARVRKALPELYAFTACMWLRSRSSGTGQGTPFSYSVPGQANEIVLLEAGHEPMELLINDKVAQLPLSLKDNGWHHICIAWTTRDGLWSAYQDGELQGSGENLAAWHPIKPHGILILGQEQDTLGGRFDATQAFVGDIAQFNLWDHALTPAQVLGIANCTAPLLGNVLPWEDKLVEAFGGATKAAFDVCKGRAKA
chain 2: GAQDSPAPGSRFVCTALPPEAVHAGCPLPAMPMQGGAQSPEEELRAAVLQLRETVVQQKETLGAQREAIRELTGKLARCEGLAGGKARGAGATGKDTMGDLPRDPGHVVEQLSRSLQTLKDRLESLEHQLRANVSNAGLPGDFREVLQQRLGELERQLLRKVAELEDEKSLLHNETSAHRQKTESTLNALLQRVTELERGNSAFKSPDAFKVSLPLRTNYLYGKIKKTLPELYAFTICLWLRSSASPGIGTPFSYAVPGQANEIVLIEWGNNPIELLINDKVAQLPLFVSDGKWHHICVTWTTRDGMWEAFQDGEKLGTGENLAPWHPIKPGGVLILGQEQDTVGGRFDATQAFVGELSQFNIWDRVLRAQEIVNIANCSTNMPGNIIPWVDNNVDVFGGASKWPVETCEERLLDL
B2: neuronal pentraxin 2 (purified, recombinant) (natural protein, UniProt P47972 16-431, looked up)
chain: B1 chain 2

Columns and labels:
[1] = target: complement C1q (purified) (UniProt P02745 23-245; P02746 28-253; P02747 29-245); experiment: ELISA
Sequence of complement C1q (purified) (P02745 23-245, chain 1 of 3): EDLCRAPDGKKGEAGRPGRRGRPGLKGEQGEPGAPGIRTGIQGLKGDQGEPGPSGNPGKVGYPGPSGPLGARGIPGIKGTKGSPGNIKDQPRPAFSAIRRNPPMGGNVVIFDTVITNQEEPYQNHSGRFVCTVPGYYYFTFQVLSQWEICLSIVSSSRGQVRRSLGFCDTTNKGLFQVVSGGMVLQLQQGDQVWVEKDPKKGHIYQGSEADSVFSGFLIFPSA
Sequence of complement C1q (purified) (P02746 28-253, chain 2 of 3): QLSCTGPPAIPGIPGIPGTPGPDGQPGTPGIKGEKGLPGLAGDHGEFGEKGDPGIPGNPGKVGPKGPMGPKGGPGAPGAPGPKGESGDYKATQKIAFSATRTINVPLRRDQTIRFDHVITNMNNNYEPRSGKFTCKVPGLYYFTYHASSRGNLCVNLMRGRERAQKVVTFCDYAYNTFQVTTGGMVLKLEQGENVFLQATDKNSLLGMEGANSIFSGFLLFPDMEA
Sequence of complement C1q (purified) (P02747 29-245, chain 3 of 3): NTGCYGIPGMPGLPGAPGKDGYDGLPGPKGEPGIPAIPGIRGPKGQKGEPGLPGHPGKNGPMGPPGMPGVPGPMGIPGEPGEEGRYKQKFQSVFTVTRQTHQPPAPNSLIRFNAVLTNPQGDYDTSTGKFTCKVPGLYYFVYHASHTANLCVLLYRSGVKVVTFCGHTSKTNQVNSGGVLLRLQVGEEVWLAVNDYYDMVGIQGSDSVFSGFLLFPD

[2] = target: the molecule itself; experiment: negative staining electron microscopy

Row | Binder | Kd [1] | stoichiometry N [2]
1 | B1 | ~2 nM | –
2 | B2 | – | 6
